Test: protease stability score; higher = more stable; yeast display proteolysis, trypsin and chymotrypsin;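 note: relative to predicted unfolded state with 0 unfolded-like and 1 meaning tenfold more protease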

DEETEDLRRWFEALLRSTHTGDFHTLNRLIDPNVRMDVGDKRHHGREFFEHLLRRADHIKIELEDYEFQGNKVIFHGKLIIHYNGQDLEYKSSMDAEKVDGRWIVRRVYLE
protease stability score: 1.58

DEETEEERKITELSLKAYKTGDEDTLSSLIDPHARFIYNGRHHHGRETASHILRRETERLGVKHIHLKDTEIDDVNGVVDMRIHMMVHYGNKTTELIIILRITKFNGRWIIETIEVRVR
protease stability score: 0.691

DEETEEIELAFHFFQHAYETGNEEVLMELADPDVKIDVNGRKLHGRERVWKFLIHHWHHLGIKHIHMDRIEIYGNKVVVDGEIKYGDKSDETIMYVVKVDGRWKLEMIEVK
protease stability score: 1.47

DEETEIEKHAMEHIFRANETGNWREILEMIDPNVKIEYGDKERHGMTIYLEILELWGITKIHLDIQSIRVINGRMDIHGRIVFNGKTHTVDLHLLKVDGRWILTEIRVR
protease stability score: 1.3

DEETEILKKVVKEMRKIMHTGDEHEIHRYLDPNARLDVDGREVHGREALLEFLRKFKGMTVHIDDVEDIGDKIFIDHELRFDGVTRKSEIISNKINGRWHVESVHIR
protease stability score: 0.357

DEETEISRRALKIFLDTIHTGDPRELKENLDPSVRIIINGVHYHGRESFEHVLERVEKSAGVDRVHVELRDFRIYGDKVEVEVTNHFNGRTEIDHFILRKVNGRWYIHEVEFE
protease stability score: 2.18

DEETEIVERYERILVKALTTGDWRRIERLMDPNVKSVVNGREYHGMERYLELYRRIRSEIRINDLRIHKVTEVGNKIEAITVWHVEVDGRIEDLETRVFLRKIDGRWILEREEVA
protease stability score: 0.827

DEETEKDKFLSEVFRHSLMTGDWESELKYADPHARTVVNGRTIHGMRESWEHLKELLERLGAKYIKIRDMDSHIQGDKVLININGELHVGDKTIETRIHLIVRKVNGQWHIEELRFDFK
protease stability score: 0.993

DEETELDERVIKLLIEALKTGDEHLKERMMDPRVRFLIDGVDLIGREWAFHIARHWRIHIHHIEHKSISRQGDYLRVNGKEDGVEEFDGRRVEKEVSSHRLILKIDGRWVLTHVELR
protease stability score: 1.28

DEETELTERAIEESKHNMETGDEDRLIELIDPNVKVEIGDKTFHGWEELMRWWHELGIKHVHLEFHDVKHFNGRIEVDGRLHIDVNGRTILLRVELYFQKINGQWFKESIHIK
protease stability score: 1.67

DEETEWLERLVRVILHALDTGDEDEMNQNADPHTRVRVGDKEYHGRELFLDVFRERVHRLGIDHSNLREFDIQGDFFHLDTRLQVGDKFLEVNLIFHVINGRITIVRIDYR
protease stability score: 1.15

DEETKELEEIMKFYISAFRTGDWRLIEELADPNVRLNVDGREFHGREQFLKHFREELEHLGIDHVHVDHIDIQGEKLIIRLTIHVDGREIHNILILIIVNGRLHEVKWIRV
protease stability score: 1.58

DEETKETIELMEKFRQDEETGDWRSLHRMADPHTKLVVDGREYHGMEHATTYLVEFIEHFGVKHFHIEDSHVVDGRIVLHTRVEVGDKSREIRIVALKINGVWLMQSIEIG
protease stability score: 0.102

DEETKFLLDIFRLVLELFMTGDEDTFSRLFDPNVRNEVNGVEAIGWHQVRELIKEILKEIRIEHIHIHDVRAVGDKVHADTRTDGIINGKRQRRETHVHLETVNGRLKSIWLQIE
protease stability score: 1.13

DEETKIIEHILEHWLRLIQTGDFHELFRLVDPNVRIDINGVEYHGREEMIKFWKEEVDKLGVDRIHTDLNRNEYQGDKIILHQEVRINGRHIDIHVHAEKVDGVWILRILKRD
protease stability score: 1.57

DEETKKLRKFMEQFIEALRTGDEEILEHLIDPNVRNIVGDKQEHGRELLLTWLVKYKGVRWMIDHITIINGVIEIHGTLQVGDKEISIHIHVLVINGKVKSVEIREN
protease stability score: 1.47

DEETKLNHLAIRLWLQSVMTGNEELQTKLIDPHVRNHIDGREYHGREVFRENLRDLWEKYGVKHVELTHEHSQGEKVHLRFKVDVNGRELDHKIIAHKIDGRWLDHSIHFH
protease stability score: 0.611

DEETKRAEELMELWLHLLRTGDEELLSELMDPHVRLDINGVELHGREALLQWHHEHRRRIDHREIRVESRRIQGEKVEQHEDIIIHVNGVEFRHREFYEVVIIDGRFKELHIEHE
protease stability score: 0.546

DEETNLSKLVMEISLELLETGDEEHIHRFVDPHARTILFIDGREEQVHGREQASKWIMWTVKFLGVDHIEVEDTKIVNGVAHLNIRMEVGDKRLTSHFTSEKVNGKWLIKDIRIRID
protease stability score: 1.94

DEETQNVRTILEEFVHDFETGDERLMHRYLDPNVRIDWNGRDYHGRETMFQMIRELSDKIKNIRIRIEHIDIINGVIIIHGDLHYNGKDVKTTLYFLKVNGRWLITRLEYK
protease stability score: 1.39

DEETRATKRFLDEVLEARATGDWRTLTRNMDPHYRLEIGEKEVHGMEEVSHMVTEEMVRLGIKHSDLKIKDSRFYNGVLHLDGRLILEVNGVRLESDVTLVELKVNGRWQIRFERWE
protease stability score: 1.08

DEETRDFDVAFMYFILFEKTGDERELLELLDPDARMVVGDKRRVGRESVLHFMREHLRTLGFKHVEDIELHDFKVYDGRIELDIRVRGRVNGKTHTLTYLMIAHKVDGRWFIHSLEVR
protease stability score: 2.14

DEETRDIIHILKLLWDAIRTGDEEAIRRLLDPDMRIQVGDKEIHGREEFLKEISHWRYDLESFHIKHVDVINGVAIIHLHIVGRFHYDGRTYHDSYEEDVFIFKVNGRWHFHQIKYR
protease stability score: 1.84

DEETRDLHHALRIVLHILRTGDFSHLFEYADPHVKIDINGKEVHGMEQMHHEIERLYFELGVDNVTVQHKRIIVYDGRVLVHMISHIGDKWRDIIIIFLKVNGRWRLHSIEVK
protease stability score: 1.72

DEETREAKEAFDIIIKHIETGDEDLLSEMLDPNVRINQGEFRIHGREAVEEWLNYMLHHMRVHVRSEEVRVVGDKVESDFRVQINQGDKIYHHDTRLFLFKIDGRWFIESMEFH
protease stability score: 1.36

DEETRHAREMMRIIAESLHTGDEDRLLEMIDPNVRVHVDGQDYHGREQWFQYLHEELRHLRIKHLTVTHHKVYDGRVELHLRVHGEVNGRHTEKTFIVIILKVDGRWKIESLRIE
protease stability score: 2.15

DEETRMSEHAERLLIRSIRTGDFEEITRLADPHVRVHIGDKDIHGRESLSEVLEKTMRKFGVDNVDYKIEDSHTYDGRIDIRGRLEVNGVKREVRFHSLKIDGRWLLTHVEMD
protease stability score: -0.04

DEEVAKKMMEAWMKALQNGNDEQMKKLYDPTVRWEDGNTEKQGLEVVVKLVQTVKKKGIEFQVRKAKVKGNQVEVHYDMKVGDDTVTFTVQFRAQGGRIQEVRVEISEEARKAVKKG
protease stability score: 1.32

DEEYDIAEEILHLLVELILTGDEHEILRYADPNVRLIIGDKDIHGMDWVSRFNMHLRLDDMKWELKRAHVYNGVIDNRGHLVMHGEIDGRHDTIKRETRILINKVNGRWNIREILIH
protease stability score: 0.653

DEEYESMKIAVERLVQAHKTGDEDFLRELADPHVRVEIGDKRMHGWDRFDEWFKFVHHHLRIKDVDMKEFHIQGNKMHVRLELHGHYNGRDLILERHVILLKVNGRWILHVVQLG
protease stability score: 2.3

DEFEEAIKLVDDIRSFALLTGDEKELKHMADPNVKLDFNGVELVGMERVWKFFEEIRLVERHVHIKDRDVQGDKVRVDGRQDIEVQQGDKKSRMDIRLDIIIKKVDGRWIVHSLVLI
protease stability score: 0.77

DEFEKDFRFAIEEWLKVVRTGDEDRAHELMDPDVKLDIGDKRHHGREEMLHHVRRADVIHDYKIKDLKFQGNYITVQGEVDGQIGDKRIRTEVRVIILKIDGVWLWRQNYER
protease stability score: 0.907

DEFEKTAEELLRRLVKNMKTGNEDMISHLLDPNARLEVGEFEYHGREQLVRFLVHLRVDHVDLHHVEVQGDKLILDTRTDGTFNGRRRNIRETIIIRKVNGKWIIESYHVE
protease stability score: 1.46

DEFHELARHALKLFKDTMDTGDEHTLEHLVDPNVRLLVDGQEIHGREAMEEFWRRVPNLRLYFHDVRVIGDKIIVDGKIEYGDKEIDSRIYLRKINGRWRFESVELR
protease stability score: 1.4

DEFHHLLELFLKLLAEQSRTGDEDSFERLFDPNVRVDINGRELHGWEAYQETRDRLGIERFDLRRIHSHTVNVVNGQVHMDMRTDGVIGDKRIDRTIHIRTTKINGRWFFTHLEWE
protease stability score: 0.578

DEFHHSVELAIRIIFEILRTGDEHHMDTMADPDVRIIIGDKHNVGRELVKDVMRRLVTEWRIRHWEIKNSHLIGDKLLVDSHVEVEVGDFNLRTDVHLVFTKINGRWTLHSHHID
protease stability score: 1.09

DEFHHWYERVIQEFDHAVETGNEHRIRELLDPNVRIIIDGQDLHGREDMIHLISEIRVSITDRRERSFRPVGDKINLLMRVDQQVFVDGQTEQVDTEVRWIIIKVNGVWLIRRIEVI
protease stability score: 1.47

DEFKELTTEFIKQFLDNIRTGNEELLRELADPHVRFLVNGRELHGRESFVETFRHWRMKDWEIRDVEVYGEKLVMDGHVRVNIDGREDSVRVRLYVDKIDGQWHHRRFEFN
protease stability score: 1.76

DEFNEATRRALHEEMKTRHTGDEDLFHRLADPDVRVIYGDKHIHGREEVVHWLREIRVKTHHLEIRRSHFQGEKAHVDGKLNGDFIFDGRTFTVQIHVEFIMIKWNGQWRIEMLRFE
protease stability score: 1.09

DEFQHMAELASTLFQRSNHTGDEHSLQEMLDPNVRVIVGDKEFHGMEELLKTLRKELEILGVQRIETEVHQVNVQGNKINVDLILHVNGRERRIHLWAHKINGRWITERIEVR
protease stability score: 0.922

DEFREIIRRAMEIYRHSERTGDEDTIREMVDPDVKLDIDGKEIVGWERLLEFLTRVDHIHLHLNNMKLQGDYVIHDGELRLNIDGRNISTRIVIIAEKVNGRWHMKHVEFR
protease stability score: 1.24

DEFRKDADRALHMFEDKIRTGNWRELDKLLDPHVRFEYGDKIHHGREQFKYFMDRYDHITARDHKIDHVEFQGDYLHMDTTVDGELFIDGKNIRIVNKSKLVLLKVNGRWTMHFLSHD
protease stability score: 0.818

DEFRRDALETHEDEIRDYLTGDWKSSKHLADPHARFVVGDKHYHGWHEMVRLVKENQEKFGIDHSEFRIHDSHVQGNKVIMDVEIHLTFNGKKIHTRSTILLVKINGVWLNTEIHID
protease stability score: 0.072

DEFTELTREVLHRIVTHLRTGNEEELARLMDPNARLEINGKEFHGREEILRLIHELEKKMGIKHVDMVIRRDTIIGDYARVNGEIIIIVDGKEIRLDTEIFILKIDGKWFIRTESIR
protease stability score: 1.21

DEHDEFLEISFKILKKTDDTGDERESRKLADPDARLHVNGVDFHGWEDFKKIMVDLGWRIEEIRIEHIRLVGDKIIIHERVRLRVGDKKRDLHFTIIALKINGRWHLRELHIE
protease stability score: 1.38

DEHDEHYHRLMKVLVDMMATGDWRTIHELMDPDARSDIDGREVHGREEVIRVIKEFFDKFKGARIEIRLRRWDTINGRIDVRVQLDVNFNGRTEQYDTRIHNVVVDGVSEELTVEVK
protease stability score: 1.39

DEHDELIERIARIYFEDELTGDWDSMMRLMDPRTRDDYNGKERHGWEEVETFFEELRKKFKGMKFHLEHLDVIGNKVHIIARWNVNGRHVQVHIDIIAFDGRVKSFSERVDIR
protease stability score: 1.15

DEHDEMSQIASEILRTVIETGNENELERMVDPHVKSIVNGRTHHGRETLSELKKKLGWERVHNRIHHVEIVGDKVVVRGSIHWNGRDVRVEFIITKVDGRWIIEEIRFH
protease stability score: 1.07

DEHDERMESVLRHLWHNWKTGDEDRLAELADPNTRTNINGKNFHGWEYMVREFSRFLKHIRIQDLKIRDFRVIDGRAISDVIVHGEVDGKDIDVKTRVELIIINGRFHTLSFTFE
protease stability score: 1.3

DEHDERQHKIHRRFFEAYMTGNEDEMLQLADPNVRLHIGDKDLIGRELFSTWVRELHDRFPGMRIHIEDEDIQGEKSHHRVRIHVDGVTRNVRINQDWYNGRLREMSIDIR
protease stability score: 0.353

From the NTF2 design screens of Basanta et al. (2020)
